T1: AtcC-6His (SO_1846) (Shewanella oneidensis MR-1, UniProt Q8EFW9 1-298)
T1 construct: AtcC (SO_1846) of Shewanella oneidensis MR-1, 34 kDa; pBad33-AtcC was made by moving the insert of pET-AtcC, so both give AtcC with a C-terminal 6-His tag; also called AtcC with a 6His-tag; not shown: His6, C-terminal, kept
T1 sequence (looked up): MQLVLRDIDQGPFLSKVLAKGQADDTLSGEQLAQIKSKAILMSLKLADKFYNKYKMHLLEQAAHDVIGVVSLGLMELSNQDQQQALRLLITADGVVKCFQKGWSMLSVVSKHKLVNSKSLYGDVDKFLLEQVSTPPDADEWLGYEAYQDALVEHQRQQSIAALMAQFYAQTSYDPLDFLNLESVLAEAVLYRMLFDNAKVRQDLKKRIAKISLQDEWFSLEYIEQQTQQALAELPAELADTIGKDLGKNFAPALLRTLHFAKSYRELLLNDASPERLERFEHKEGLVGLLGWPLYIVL


Experiments:
[1] = target: DnaK-6His from S. oneidensis (Shewanella oneidensis MR-1, UniProt Q8EHT7 1-639); assay: cell-based or functional assay
[2] = target: T1, AtcC-6His (SO_1846); assay: ITC; 25 °C, buffer B (50 mM Tris-HCl, 100 mM KCl, 10% glycerol, 1 mM DTT); 285 µM ligand titrated into 36 µM AtcC in the cell; one set of sites model; settings: both partners purified
[3] = target: T1, AtcC-6His (SO_1846); assay: pull-down; settings: both partners purified

Chain of DnaK-6His from S. oneidensis (Q8EHT7 whole entry): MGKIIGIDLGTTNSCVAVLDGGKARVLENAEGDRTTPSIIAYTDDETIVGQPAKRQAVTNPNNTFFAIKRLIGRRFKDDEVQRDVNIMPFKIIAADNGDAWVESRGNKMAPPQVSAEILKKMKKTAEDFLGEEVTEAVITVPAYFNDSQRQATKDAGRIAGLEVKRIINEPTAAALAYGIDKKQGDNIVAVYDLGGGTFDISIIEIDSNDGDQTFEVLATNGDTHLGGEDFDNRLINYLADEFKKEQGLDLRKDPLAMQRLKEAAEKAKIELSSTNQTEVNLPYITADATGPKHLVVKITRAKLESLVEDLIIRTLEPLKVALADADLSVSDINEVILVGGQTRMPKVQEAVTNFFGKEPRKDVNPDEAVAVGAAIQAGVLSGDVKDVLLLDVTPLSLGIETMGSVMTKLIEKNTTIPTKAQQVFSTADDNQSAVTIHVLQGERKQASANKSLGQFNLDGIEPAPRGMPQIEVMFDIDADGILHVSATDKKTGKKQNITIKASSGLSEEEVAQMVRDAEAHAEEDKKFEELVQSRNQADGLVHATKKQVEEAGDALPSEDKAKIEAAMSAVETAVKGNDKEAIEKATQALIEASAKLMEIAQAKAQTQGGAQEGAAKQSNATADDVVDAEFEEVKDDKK

stimulation of the ATPase activity of DnaK in the presence of GrpE (2 µM) from S. oneidensis [1] [fold] | Kd [2] [nM] | stoichiometry N [2] | binding result [3] | Binder
2.7 | 7 ± 2 | 1 |  | AtcJ-6His (Adaptation to cold protein J, SO_1850) (natural protein, Shewanella oneidensis MR-1, UniProt Q8EFW5 1-94, looked up, AtcJ (SO_1850) of Shewanella oneidensis MR-1, a 94-amino acid J-domain protein (J-domain 1-73 and a C-terminal extension of 21 amino acids); also called wild-type AtcJ; AtcJ-WT) MINHFSVLGIKPSAKEDDIKKAYRRLSNKYHPDKLLGASDEEKEQASQQLERVKKAYEVLSDPKLRNAFIRDFNNVIVTDPNSAMRELWDQFYP
 |  |  | binds | Strep-AtcB (natural protein, Shewanella oneidensis MR-1, UniProt Q8EFW7 1-252, looked up, AtcB (SO_1848) of Shewanella oneidensis MR-1, 29 kDa; also called AtcB with a Strep-tag; purified AtcB) MNTSLIEITVAEIKELADVEPKQASKRFELIATTMNDEQLVEVIEKMDIVTLTQINSHHDISCPSIMSELMTPEQIRDIVCQQPLYWEEKIKNNAEELIQHTFDFLTYLIRIQDSEEKQTAILECIAEDPAGLFYLSIPFIEMMLGEGHDDEDHINDYYDDEEDTDTIGYDSRVASEEAHSFSLDDPRSLMALIHELAPDVEKAIKNLLRNESSGWETIINKFVNELVIQAKEKNQVTDEYAEVDDMFSFLD
 | 80 ± 12 |  |  | NNVIVTDPNSAMRELWDQFYP (last 21 amino acids of AtcJ (SO_1850) of Shewanella oneidensis (94 amino acids; N74 is the first residue of the extension); The methods sentence says 'last 21 amino acids of AtcC'; results and legends say AtcJ; also called the peptide) [pep21, synthetic peptide corresponding to the last 21 amino acids of AtcJ]

Reference: article PMC6715715 (Communications Biology, 2019)
